Laboratory results: publication PMC2855817 (Biochemistry, 2010)
Read-outs that look alike come from different tables or passages of the source.

Assays:
[1] = target: L29P variant of Pseudomonas fluorescens (SIK WI) aryl esterase (PFE) (Pseudomonas fluorescens SIK WI); test: crystal structure
O=C1CCCCCO1 = test: purified protein; format: biochemical, Pseudomonas fluorescens; details: pH 7.2, BES, 23 °C
[2] = target: T1, PFE (Pseudomonas fluorescens esterase; aryl esterase) (Pseudomonas fluorescens, UniProt P22862, L30P); details: pH 5.5, 23 °C
T1 sequence (P22862 2-272 L30P): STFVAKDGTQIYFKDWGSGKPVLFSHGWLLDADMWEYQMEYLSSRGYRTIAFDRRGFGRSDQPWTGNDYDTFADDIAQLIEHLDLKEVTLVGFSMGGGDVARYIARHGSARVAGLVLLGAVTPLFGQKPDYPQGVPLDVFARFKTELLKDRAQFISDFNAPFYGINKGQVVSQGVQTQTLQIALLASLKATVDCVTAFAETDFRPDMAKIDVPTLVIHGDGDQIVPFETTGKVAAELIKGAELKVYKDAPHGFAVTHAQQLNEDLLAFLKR

[3] = target: T1, PFE (Pseudomonas fluorescens esterase; aryl esterase); details: pH 5.5, 23 °C; estimated upper limit

“L29P variant of Pseudomonas fluorescens (SIK WI) aryl esterase (PFE) (enzyme)” gave a stoichiometry N [1] of 6.

“PFE (Pseudomonas fluorescens esterase; aryl esterase) (Pseudomonas fluorescens; L30P)” showed a Km (O=C1CCCCCO1) of 39000 ± 1000 µM, a kcat (O=C1CCCCCO1) of 11 ± 1 s⁻¹ and a kcat/Km (O=C1CCCCCO1) of 280 M⁻¹ s⁻¹.

In the case of `CC(=O)OO` [peracetic acid], the Km [2] is reported as 41 ± 5 µM and the Km [3] is reported as under 3 µM.
